{"source": "patent US20250313625A1", "about": "(ELPISCIENCE SUZHOU BIOPHARMA, published 2025)", "binders": {"B1": {"name": "BMS-986016 (antibody, V domains shown)", "VH": "QVQLQQWGAGLLKPSETLSLTCAVYGGSFSDYYWNWIRQPPGKGLEWIGEINHRGSTNSNPSLKSRVTLSLDTSKNQFSLKLRSVTAADTAVYYCAFGYSDYEYNWFDPWGQGTLVTVSS", "VL": "EIVLTQSPATLSLSPGERATLSCRASQSISSYLAWYQQKPGQAPRLLIYDASNRATGIPARFSGSGSGTDFTLTISSLEPEDFAVYYCQQRSNWPLTFGQGTNLEIK"}, "B2": {"name": "029c (antibody, human IgG4, V domains shown)", "VH": "DVKLVESGEDLVKPGGSLKLSCAASGFTFSSYAMSWVRQTPEKRLEWVAYVTSGGDYIYYADTVKGRFTISRDDVRNTLYLQMSSLKSEDTAMYYCTRVAYDYEWYFDVWGTGAPVTVSS", "VL": "DIVMTQSHKFMSTSVGDRVSITCKASQDVTTAVAWYQQKPGQSPKLLIYSASYRYTGVSDRFTGSGSGTDFTFTISSVQAEDLALYYCQQHDSSPWTFGGGTKLEIK", "notes": "human IgG4 S228P / kappa chimeric antibody; also called chimeric antibody 029; not shown: human kappa light chain constant region (pcDNA3.4-hIgGk vector)"}}, "key": {"[1]": {"target": "T1, LAG3 D1 domain extra loop peptide (biotin labelled (site not stated))", "T1 peptide": "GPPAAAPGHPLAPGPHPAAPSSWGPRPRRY", "assay": "ELISA format I: biotin labelled LAG3 D1 domain extra loop peptide on plate coated antibody; axis printed as Ab Conc. (nM)", "experimental": "(§1) In ELISA binding assay of format I (FIG. 9A), biotin labelled LAG3 D1 domain extra loop peptide was incubated with ELISA microplate coated anti-LAG3 antibodies. After washing, HRP labeled anti-SA 2nd antibody (Sigma) was added and incubated at 37° C. for 1 hour. Then, 100 μl/well of TMB solution (Biotechnology) was added. After incubation for 15 minutes at room temperature, the reaction was stopped by the addition of 50 μl of 1N HCl. OD 450 nm was read. In ELISA binding assay of format II (FIG. 9B), biotin labelled LAG3 D1 domain extra loop peptide and anti-LAG3 antibodies were co-incubated in ELISA microplate coated with SA. After washing, HRP labeled anti-human Fc 2nd antibody (Sigma) was added and incubated at 37° C. for 1 hour. Then, 100 μl/well of TMB solution (Biotechnology) was added. After incubation for 15 minutes at room temperature, the reaction was stopped by the addition of 50 μl of 1N HCl. OD 450 nm was read."}, "[2]": {"target": "T1, LAG3 D1 domain extra loop peptide", "assay": "ELISA format II: biotin labelled LAG3 D1 domain extra loop peptide and antibody co-incubated on streptavidin coated plate, anti-human Fc detection", "experimental": "as §1"}, "[3]": {"target": "T2, human LAG3 (form used in Octet, Biacore and HDX-MS not given) (human, UniProt P18627 23-450, limits assumed)", "T2 sequence (looked up)": "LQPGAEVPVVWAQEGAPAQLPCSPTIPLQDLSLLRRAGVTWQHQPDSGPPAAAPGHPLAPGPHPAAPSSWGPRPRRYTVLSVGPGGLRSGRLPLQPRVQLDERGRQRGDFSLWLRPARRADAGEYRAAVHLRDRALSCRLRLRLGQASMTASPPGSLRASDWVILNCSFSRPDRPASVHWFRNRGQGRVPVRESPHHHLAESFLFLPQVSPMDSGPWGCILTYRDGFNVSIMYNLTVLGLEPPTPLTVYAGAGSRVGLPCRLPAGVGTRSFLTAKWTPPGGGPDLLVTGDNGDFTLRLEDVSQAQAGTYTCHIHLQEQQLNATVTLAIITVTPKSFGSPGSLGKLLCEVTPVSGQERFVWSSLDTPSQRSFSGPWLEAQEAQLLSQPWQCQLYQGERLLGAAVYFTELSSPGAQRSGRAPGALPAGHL", "assay": "BLI (Octet), 1:1 fit", "experimental": "The purified chimeric antibodies were characterized for binding affinity against human LAG3 using Bio-Layer Interferometry technology (Octet system). The association and dissociation curves were fit with 1:1 binding model, and the Ka/Kd/KD values for each antibody were calculated."}, "[4]": {"target": "T2, human LAG3 (form used in Octet, Biacore …)", "assay": "BLI (Octet), 1:1 fit", "experimental": "(§2) The association and dissociation curves were fit with 1:1 binding model, and the Ka/Kd/KD values for each antibody were calculated.\nas §2", "remark": "listed apart in the source"}, "[5]": {"target": "T3, human LAG3, full length, stably expressed on cells (human, UniProt P18627 23-525)", "T3 construct": "whole, on cells; also called CHOK1-human LAG3", "T3 sequence (looked up)": "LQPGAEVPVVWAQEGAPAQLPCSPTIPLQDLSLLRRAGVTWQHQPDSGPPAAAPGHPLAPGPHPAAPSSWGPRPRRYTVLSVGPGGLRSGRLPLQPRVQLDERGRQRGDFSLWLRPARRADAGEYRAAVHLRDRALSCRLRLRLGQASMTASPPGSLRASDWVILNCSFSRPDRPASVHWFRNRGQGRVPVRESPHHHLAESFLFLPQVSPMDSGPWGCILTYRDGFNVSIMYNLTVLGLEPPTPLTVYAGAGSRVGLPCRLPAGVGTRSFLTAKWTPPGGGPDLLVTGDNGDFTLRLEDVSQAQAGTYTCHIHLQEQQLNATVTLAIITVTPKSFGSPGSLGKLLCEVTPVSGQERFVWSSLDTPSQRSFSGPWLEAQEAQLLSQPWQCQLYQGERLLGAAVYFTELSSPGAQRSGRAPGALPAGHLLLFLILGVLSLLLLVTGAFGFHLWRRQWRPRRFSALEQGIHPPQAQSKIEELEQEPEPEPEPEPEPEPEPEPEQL", "assay": "FACS on 293F cells stably expressing human LAG3", "experimental": "Briefly the antibodies were incubated with 2×10⁵ target cells at 4° C. for 1 hour. After washing, fluorescence labeled anti-mouse IgG 2nd antibody (Life Technologies) was added and incubated at 4° C. for 1 hour. Geometric median fluorescence intensity (MFI) was detected and EC₅₀ was calculated using GraphPad Prism9.0.\nMFI was detected and EC₅₀ was calculated using GraphPad Prism9.0."}, "[6]": {"target": "T4, mFc tagged human LAG3 ECD recombinant protein (human, UniProt P18627 23-450)", "T4 construct": "extracellular domain; purchased from Biointron; not shown: mouse IgG Fc (mFc) tag", "T4 sequence (looked up)": "T2 sequence (looked up)", "assay": "competitive FACS: mFc-LAG3 ECD binding to Raji cells (MHC II)", "experimental": "(§3) Activity of the purified chimeric antibodies to block LAG3 and MHC II interaction was determined by competitive FACS assay. […] After washing, dye labeled anti-mouse Fc 2nd antibody (Sigma) was added and incubated at 37° C. for 1 hour. Fluorescence intensity was detected."}, "[7]": {"target": "T5, human LAG3 ECD recombinant protein (plate coated, tag not stated) (human, UniProt P18627 23-450)", "T5 construct": "extracellular domain", "T5 sequence (looked up)": "T2 sequence (looked up)", "assay": "competitive ELISA format I: His-FGL1 binding to coated LAG3 ECD"}, "[8]": {"target": "T6, hFc tagged human LAG3 ECD recombinant protein (human, UniProt P18627 23-450)", "T6 construct": "range 23-450; also called biotin labelled hFc tagged human LAG3 ECD; not shown: human IgG Fc tag", "T6 sequence (looked up)": "T2 sequence (looked up)", "assay": "competitive ELISA format II: biotin hFc-LAG3 ECD binding to coated His-FGL1", "experimental": "After washing, HRP labeled anti-His 2nd antibody (Sigma) was added and incubated at 37° C. for 1 hour. Then, 100 μl/well of TMB solution (Biotechnology) was added. After incubation for 15 minutes at room temperature, the reaction was stopped by the addition of 50 μl of 1N HCl. OD 450 nm was read. […] After washing, HRP labeled anti-SA 2nd antibody (Sigma) was added and incubated at 37° C. for 1 hour. Then, 100 μl/well of TMB solution (Biotechnology) was added. After incubation for 15 minutes at room temperature, the reaction was stopped by the addition of 50 μl of 1N HCl. OD 450 nm was read. […] The competition assay of format III is a competitive FACS assay. […] After washing, dye labeled anti-His 2nd antibody (Sigma) was added and incubated at 37° C. for 1 hour. Fluorescence intensity was detected."}, "[9]": {"target": "T4, mFc tagged human LAG3 ECD recombinant …", "assay": "competitive FACS: mFc tagged human LAG3 ECD binding to MHC II on Raji cells", "experimental": "as §3"}, "[10]": {"target": "T4, mFc tagged human LAG3 ECD recombinant …", "assay": "competitive FACS: mFc tagged human LAG3 ECD binding to MHC II on Raji cells", "experimental": "as §3", "remark": "listed apart in the source"}, "[11]": {"target": "T4, mFc tagged human LAG3 ECD recombinant …", "assay": "competitive ELISA: mFc tagged human LAG3 ECD binding to plate coated LSECtin ECD", "experimental": "Activity of the purified chimeric antibodies to block LAG3 and LSECtin interaction was determined by competitive ELISA assay. […] After washing, HRP labeled anti-mouse Fc 2nd antibody (Sigma) was added and incubated at 37° C. for 1 hour. Then, 100 μl/well of TMB solution (Biotechnology) was added. After incubation for 15 minutes at room temperature, the reaction was stopped by the addition of 50 μl of 1N HCl. OD 450 nm was read."}}, "note": "Like-named read-outs stand apart in the source and are kept apart here."}
{"binder": "B1", "values": [{"measurement": "EC50 (read off the curve)", "setting": "[1]", "result": "~0.08", "unit": "nM"}, {"measurement": "EC50 (read off the curve)", "setting": "[2]", "result": "~0.2", "unit": "nM"}]}
{"binder": "B2", "values": [{"measurement": "Kd", "setting": "[3]", "result": 3.58, "unit": "nM"}, {"measurement": "koff", "setting": "[3]", "result": 0.00139, "unit": "s⁻¹"}, {"measurement": "kon", "setting": "[3]", "result": 389000, "unit": "M⁻¹ s⁻¹"}, {"measurement": "Kd", "setting": "[4]", "result": 7.7, "unit": "nM"}, {"measurement": "koff", "setting": "[4]", "result": 0.0268, "unit": "s⁻¹"}, {"measurement": "kon", "setting": "[4]", "result": "3.48e+06", "unit": "M⁻¹ s⁻¹"}, {"measurement": "EC50", "setting": "[5]", "result": 1.6, "unit": "nM"}, {"measurement": "TOP MFI", "setting": "[5]", "result": 416}, {"measurement": "IC50", "setting": "[6]", "result": 4.2, "unit": "nM"}, {"measurement": "TOP blocking (%)", "setting": "[6]", "result": 96.4, "unit": "%"}, {"measurement": "Blocking ratio at 66.7 nM (%)", "setting": "[7]", "result": 62.6, "unit": "%"}, {"measurement": "IC50", "setting": "[8]", "result": 2, "unit": "nM"}, {"measurement": "TOP blocking (%)", "setting": "[8]", "result": 84.5, "unit": "%"}, {"measurement": "%Blocking at 2 nM", "setting": "[9]", "result": 9.7, "unit": "%"}, {"measurement": "%Blocking at 4 nM", "setting": "[9]", "result": 24.1, "unit": "%"}, {"measurement": "%Blocking at 8 nM", "setting": "[9]", "result": 84.3, "unit": "%"}, {"measurement": "%Blocking at 4 nM", "setting": "[10]", "result": 21.5, "unit": "%"}, {"measurement": "%Blocking at 8 nM", "setting": "[10]", "result": 96.7, "unit": "%"}, {"measurement": "%Blocking at 4 nM", "setting": "[11]", "result": 61.6, "unit": "%"}, {"measurement": "%Blocking at 20 nM", "setting": "[11]", "result": 92.7, "unit": "%"}, {"measurement": "%Blocking at 100 nM", "setting": "[11]", "result": 97, "unit": "%"}, {"measurement": "binding result", "setting": "[1]", "result": "no binding (tested: about 300 nM)"}]}
